Results published in publication doi:10.1101/2020.09.28.310474 (bioRxiv, 2020).

Target: the molecule itself
Assay: crystal structure

B1: human CaMKIIα hub domain containing six mutations (6x Hub) (domain or fragment, UniProt Q9UQM7 345-475, looked up)
chain: VRKQEIIKVNQQLIEAISNGDFESYTKMCDPGMTAFEPEALGNLVEGLDFHRFYFENLWSRNSKPVHNTMLNPHIHLMGDESACIAYIRITQYLDAGGIPRTAQSEETRVWHRRDGKWQHVHMHRSGAPSV
- stoichiometry N: 14
